Reference: PMC8798045

Tests used:
[1] = molecular target: Microtubules polymerized from bovine brain tubulin (bovine) (UniProt Q6B856); experiment: TIRF microscopy; dynamic microtubules grown from GMPCPP seeds with 9 µM tubulin and 5 µM 488-SSNA1 (7% labeled), imaged 60 min; SSNA1 intensity at the microtubule end region; 35°C
[2] = molecular target: Microtubules polymerized from bovine brain tubulin (bovine) (UniProt Q6B856); experiment: single-molecule TIRF microscopy (dwell times); 5 nM 647-SSNA1 (100% labeled) alone on surface-bound GMPCPP-stabilized microtubule seeds; 5-10 min after SSNA1 addition; 5 fps; 35°C
[3] = molecular target: Microtubules polymerized from bovine brain tubulin (bovine) (UniProt Q6B856); experiment: single-molecule TIRF microscopy (dwell times); 5 nM 647-SSNA1 (100% labeled) alone on surface-bound GMPCPP-stabilized microtubule seeds; 0-5 min after SSNA1 addition; 5 fps; 35°C
[4] = molecular target: Microtubules polymerized from bovine brain tubulin (bovine) (UniProt Q6B856); experiment: single-molecule TIRF microscopy (dwell times); spiking: 5 nM 647-SSNA1 with 1 µM 488-SSNA1 on surface-bound GMPCPP-stabilized microtubule seeds; 5-10 min after SSNA1 addition; 5 fps; 35°C
[5] = molecular target: Microtubules polymerized from bovine brain tubulin (bovine) (UniProt Q6B856); experiment: single-molecule TIRF microscopy (dwell times); spiking: 5 nM 647-SSNA1 with 1 µM 488-SSNA1 on surface-bound GMPCPP-stabilized microtubule seeds; 0-5 min after SSNA1 addition; 5 fps; 35°C

Human 6His-SSNA1 (Sjögren's syndrome nuclear autoantigen-1) (from UniProt O43805 1-119) (natural protein)
SSNA1 fluorescence intensity at the microtubule end region, 3 min [1]: 0.33 a.u. | mean single-molecule dwell time [2]: 10 s | mean single-molecule dwell time [3]: 12 s | association rate (events µm^–1 nM^–1 s^–1) [4]: 0.0024 | mean single-molecule dwell time [4]: 39 s | association rate (events µm^–1 nM^–1 s^–1) [5]: 0.00096 | mean single-molecule dwell time [5]: 19 s
